Test in all cases: SPR, mAb captured, C2 mutant analyte;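 also: Anti-C2 mAbs captured on goat anti-human IgG Biacore CM5 chips, alanine or serine C2 surface mutants flowed over at 37 °C, double-referenced sensorgrams fitted to a 1:1 binding model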
Assay [1] concerns the target T1, human C2 Y328A (human, UniProt P06681 21-752).
T1 sequence: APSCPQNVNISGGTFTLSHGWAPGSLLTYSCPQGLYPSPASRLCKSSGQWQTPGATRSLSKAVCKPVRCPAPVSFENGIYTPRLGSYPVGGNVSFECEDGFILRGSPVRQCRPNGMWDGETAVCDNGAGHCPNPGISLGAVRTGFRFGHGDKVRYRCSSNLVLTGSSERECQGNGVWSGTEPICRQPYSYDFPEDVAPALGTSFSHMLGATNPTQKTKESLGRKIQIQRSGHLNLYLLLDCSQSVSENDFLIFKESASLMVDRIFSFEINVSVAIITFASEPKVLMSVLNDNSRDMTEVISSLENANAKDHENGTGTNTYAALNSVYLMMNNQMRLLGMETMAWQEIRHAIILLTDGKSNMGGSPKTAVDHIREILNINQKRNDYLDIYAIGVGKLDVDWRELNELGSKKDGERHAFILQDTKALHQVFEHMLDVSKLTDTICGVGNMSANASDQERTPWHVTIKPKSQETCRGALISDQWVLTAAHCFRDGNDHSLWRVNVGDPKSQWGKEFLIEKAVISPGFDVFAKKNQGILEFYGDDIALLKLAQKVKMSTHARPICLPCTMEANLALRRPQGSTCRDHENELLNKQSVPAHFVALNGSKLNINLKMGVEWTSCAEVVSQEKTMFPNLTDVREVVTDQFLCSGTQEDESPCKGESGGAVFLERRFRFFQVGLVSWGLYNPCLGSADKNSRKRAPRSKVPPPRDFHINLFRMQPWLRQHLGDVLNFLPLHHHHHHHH
Protocol: (§1) Surface plasmon resonance (SPR, Biacore) was used for all binding affinity analyses. In brief, goat anti-human IgG was directly immobilised onto the carboxymethyl dextran surface of CM5 sensorchips to approximately 12,000 RU using standard NHS/EDC chemistry at pH 5. The immobilised antibody surface was pre-conditioned with ten injections of polyclonal human IgG (Privigen 60 s) prepared at 1 μg/mL. Ligands (anti-C2 mAbs) were captured at the beginning of each cycle as described below. An adjacent spot or flow cell in which only Polyclonal IgG was capture was used as a reference surface. The goat anti-human IgG Fc antibody surface was regenerate in 100 mM H3PO4, injected for 45 seconds at the end of each cycle. Experiments were performed at 37° C. and the flow rate of each experiment was kept constant at 30 μL/min.
(§2) Sensogram data was double-referenced against a reference anti-IgG surface (i.e. minus anti-C2 mAb) and blank buffer injections obtained within each experiment. The binding data was fit to 1:1 (kinetic or steady-state) model using local Rmax and null refraction index (RI=0) when appropriate. Buffers and solutions were filtered (0.22 μm) prior to use.

In assay [2] the target is T2, human C2 D404A (human, UniProt P06681 21-752).
T2 sequence: T1 sequence with A308Y, D384A
Protocol: as §1, §2

Assay [3] deals with T3, human C2 K415A (human, UniProt P06681 21-752).
T3 sequence: T1 sequence with A308Y, K395A
Protocol: as §1, §2

Assay [4] addresses T4, human C2 G414A (human, UniProt P06681 21-752).
T4 sequence: T1 sequence with A308Y, G394A
Protocol: as §1, §2

The values that follow come from US20220332804A1 (CSL INNOVATION, published 2022).

Substitutions are numbered along the chain they refer to.

B1: RF16-214 (antibody, V domains shown)
VH: EVQLLESGGGLVQPGGSLRLSCAASGFTFSWYQMMWVRQAPGKGLEWVSRIYPSGGGTAYADSVKGRFTISRDNSKNTLYLQMNSLRAEDTAVYYCARDAGYGDNWGQGTLVTVSS
VL: QSALTQPPSVSVSPGQTASITCSGDKLGEKYASWYQQKAGQSPVMVIYQDRKRPSGIPERFSGSNSGNTATLTISGTQAMDEADYYCQAWDTRAVVFGGGTKLTVLG
For the molecule B1, the Kd (commonly the free concentration of one partner at which half of the binding sites on the other are occupied at equilibrium, for simple one-to-one binding) in assay [1] is 196 nM; in assay [2], 77.6 nM; in assay [3], 46 nM; in assay [4], 14.8 nM.
